Where a chain is given by its changes, count along the chain named.
B1: NRC3_wobSeed123_DR5_G21T_o1 (dsDNA)
DNA 1: GCCCTCGGAGGACAACAGGATGTCAGAGCTGCCAGAGCGATTGACAGCGTAGAATGAAGG
DNA 2: CCTTCATTCTACGCTGTCAATCGCTCTGGCAGCTCTGACATCCTGTTGTCCTCCGAGGGC
B2: NRC3_wobSeed45_DR1_T11C_o1 (dsDNA)
DNA 1: GCTGTCAAAGCTCAAAGGTAACGTAAGTATCCACACGCGATTGACAGCGTAGAATGAAGG
DNA 2: CCTTCATTCTACGCTGTCAATCGCGTGTGGATACTTACGTTACCTTTGAGCTTTGACAGC
B3: NRC3_wobSeed82_DR3_G10C_o1 (dsDNA)
DNA 1: GCATCGAAACGTCGACGAGGTGAGTATACACCGTTTGCGATTGACAGCGTAGAATGAAGG
DNA 2: CCTTCATTCTACGCTGTCAATCGCAAACGGTGTATACTCACCTCGTCGACGTTTCGATGC
B4: NRC3_wobSeed99_DR4_G20C_o1 (dsDNA)
DNA 1: GCTCTCGGAGGACACGAAACGTCAGAGCTCGACATCGCGATTGACAGCGTAGAATGAAGG
DNA 2: CCTTCATTCTACGCTGTCAATCGCGATGTCGAGCTCTGACGTTTCGTGTCCTCCGAGAGC
B5: NRC3_wobSeed72_DR2_G17T_o1 (dsDNA)
DNA 1: GCTCGAGTAGGTTACGTGGGCATTCAGGGATGAAGAGCGATTGACAGCGTAGAATGAAGG
DNA 2: CCTTCATTCTACGCTGTCAATCGCTCTTCATCCCTGAATGCCCACGTAACCTACTCGAGC
B6: NRC3_wobSeed28_DR1_T19A_o1 (dsDNA)
DNA 1: GCCCTACTGGGCCAAAGGACATTGATTCCAATGCTCGCGATTGACAGCGTAGAATGAAGG
DNA 2: CCTTCATTCTACGCTGTCAATCGCGAGCATTGGAATCAATGTCCTTTGGCCCAGTAGGGC
B7: NRC3_wobSeed10_DR0_A9T_o1 (dsDNA)
DNA 1: GCATCGAATGGTCGAGGTGAGTATAGAGAAAGGGAAGCGATTGACAGCGTAGAATGAAGG
DNA 2: CCTTCATTCTACGCTGTCAATCGCTTCCCTTTCTCTATACTCACCTCGACCATTCGATGC
B8: NRC3_wobSeed16_DR0_G11T_o1 (dsDNA)
DNA 1: GCCAGCCTAGTTCAGGGCCAGTATAGGAGGAACGTTGCGATTGACAGCGTAGAATGAAGG
DNA 2: CCTTCATTCTACGCTGTCAATCGCAACGTTCCTCCTATACTGGCCCTGAACTAGGCTGGC
B9: NRC3_wobSeed36_DR1_A16C_o1 (dsDNA)
DNA 1: GCCCGACTGGGGCAACGGTTACCATACTCAGTACGAGCGATTGACAGCGTAGAATGAAGG
DNA 2: CCTTCATTCTACGCTGTCAATCGCTCGTACTGAGTATGGTAACCGTTGCCCCAGTCGGGC
B10: NRC3_wobSeed93_DR3_C13G_o1 (dsDNA)
DNA 1: GCAGTCAAAGTTGATCTAGGTAACGTAAGATATGCTGCGATTGACAGCGTAGAATGAAGG
DNA 2: CCTTCATTCTACGCTGTCAATCGCAGCATATCTTACGTTACCTAGATCAACTTTGACTGC
B11: NRC3_wobSeed125_DR5_A14C_o1 (dsDNA)
DNA 1: GCCCTTACGGGTCCCTGACAGGTTATAGCATTTGGAGCGATTGACAGCGTAGAATGAAGG
DNA 2: CCTTCATTCTACGCTGTCAATCGCTCCAAATGCTATAACCTGTCAGGGACCCGTAAGGGC
B12: NRC3_wobSeed101_DR4_C13A_o1 (dsDNA)
DNA 1: GCCCTTACGGGTAACTCCAGGTTATAGCATCGGAGTGCGATTGACAGCGTAGAATGAAGG
DNA 2: CCTTCATTCTACGCTGTCAATCGCACTCCGATGCTATAACCTGGAGTTACCCGTAAGGGC
B13: NRC3_wobSeed135_DR5_C13G_o1 (dsDNA)
DNA 1: GCCGAACTAGGTGATTGACAGGACAGTGAATAGTAAGCGATTGACAGCGTAGAATGAAGG
DNA 2: CCTTCATTCTACGCTGTCAATCGCTTACTATTCACTGTCCTGTCAATCACCTAGTTCGGC
B14: NRC3_wobSeed28_DR1_T19C_o1 (dsDNA)
DNA 1: B6 DNA 1 with A19C
DNA 2: B6 DNA 2 with T42G
B15: NRC3_wobSeed63_DR2_G10A_o1 (dsDNA)
DNA 1: GCCGAACTAAGTCACCAGGACAGTGAAGAGGTTGGAGCGATTGACAGCGTAGAATGAAGG
DNA 2: CCTTCATTCTACGCTGTCAATCGCTCCAACCTCTTCACTGTCCTGGTGACTTAGTTCGGC
B16: NRC3_wobSeed110_DR4_A9T_o1 (dsDNA)
DNA 1: GCTCTGCTTGGTCAACGATGGTCAGCTAATCTGCTAGCGATTGACAGCGTAGAATGAAGG
DNA 2: CCTTCATTCTACGCTGTCAATCGCTAGCAGATTAGCTGACCATCGTTGACCAAGCAGAGC
B17: NRC3_wobSeed58_DR2_G10T_o1 (dsDNA)
DNA 1: GCATCGAAATGTCGTGAGGTGAGTATACAGAAAGGCGCGATTGACAGCGTAGAATGAAGG
DNA 2: CCTTCATTCTACGCTGTCAATCGCGCCTTTCTGTATACTCACCTCACGACATTTCGATGC
B18: NRC3_wobSeed58_DR2_G10C_o1 (dsDNA)
DNA 1: B17 DNA 1 with T10C
DNA 2: B17 DNA 2 with A51G
B19: NRC3_wobSeed6_DR0_G17T_o1 (dsDNA)
DNA 1: GCCCTAGCAGGCCAGGTTCACTCAAGCATTTCGCTTGCGATTGACAGCGTAGAATGAAGG
DNA 2: CCTTCATTCTACGCTGTCAATCGCAAGCGAAATGCTTGAGTGAACCTGGCCTGCTAGGGC
B20: NRC3_wobSeed114_DR4_A14C_o1 (dsDNA)
DNA 1: GCAATACAGGGTCCTCGTAGGCCAGAGTACGCACAGGCGATTGACAGCGTAGAATGAAGG
DNA 2: CCTTCATTCTACGCTGTCAATCGCCTGTGCGTACTCTGGCCTACGAGGACCCTGTATTGC
B21: NRC3_wobSeed110_DR4_G10T_o1 (dsDNA)
DNA 1: B16 DNA 1 with T9A, G10T
DNA 2: B16 DNA 2 with C51A, A52T
B22: NRC3_wobSeed136_DR5_G11C_o1 (dsDNA)
DNA 1: GCTAGCCTAGCTCATTCAGGGGCCAGTATAGAAAGCGCGATTGACAGCGTAGAATGAAGG
DNA 2: CCTTCATTCTACGCTGTCAATCGCGCTTTCTATACTGGCCCCTGAATGAGCTAGGCTAGC
B23: NRC3_random_hg19_159_o1 (dsDNA)
DNA 1: GCGGTTCAACATTCAGCAAACATTGGATGATAGTTTGCGATTGACAGCGTAGAATGAAGG
DNA 2: CCTTCATTCTACGCTGTCAATCGCAAACTATCATCCAATGTTTGCTGAATGTTGAACCGC
B24: NRC3_random_hg19_229_o1 (dsDNA)
DNA 1: GCTAAACTGTATCCACTTACCTTTCTCAGAACCTTTGCGATTGACAGCGTAGAATGAAGG
DNA 2: CCTTCATTCTACGCTGTCAATCGCAAAGGTTCTGAGAAAGGTAAGTGGATACAGTTTAGC
B25: NRC3_random_hg19_224_o1 (dsDNA)
DNA 1: GCCTTCCTAACTGAATCACCTCATCAACAGCTAAACGCGATTGACAGCGTAGAATGAAGG
DNA 2: CCTTCATTCTACGCTGTCAATCGCGTTTAGCTGTTGATGAGGTGATTCAGTTAGGAAGGC
B26: NRC3_random_hg19_1_o1 (dsDNA)
DNA 1: GCGTGTTTGATTCTCATTGTCACCTTCTCTAGGCCTGCGATTGACAGCGTAGAATGAAGG
DNA 2: CCTTCATTCTACGCTGTCAATCGCAGGCCTAGAGAAGGTGACAATGAGAATCAAACACGC
B27: NRC3_random_hg19_313_o1 (dsDNA)
DNA 1: GCACTACATAAGTAATCATCTCCCTCTGCAACTGGGGCGATTGACAGCGTAGAATGAAGG
DNA 2: CCTTCATTCTACGCTGTCAATCGCCCCAGTTGCAGAGGGAGATGATTACTTATGTAGTGC
B28: NRC3_random_hg19_328_o1 (dsDNA)
DNA 1: GCACTTAGAGCCCAGGAGCTTGAGGTCGCAGCTACTGCGATTGACAGCGTAGAATGAAGG
DNA 2: CCTTCATTCTACGCTGTCAATCGCAGTAGCTGCGACCTCAAGCTCCTGGGCTCTAAGTGC
B29: NRC3_random_hg19_410_o1 (dsDNA)
DNA 1: GCTAACGAATGATCTTTCTAATGTGTTGTTGAATTCGCGATTGACAGCGTAGAATGAAGG
DNA 2: CCTTCATTCTACGCTGTCAATCGCGAATTCAACAACACATTAGAAAGATCATTCGTTAGC
B30: NRC3_random_hg19_51_o1 (dsDNA)
DNA 1: GCGAGAAAGCTGAACTGTCACTCTTTGCTGATGATGGCGATTGACAGCGTAGAATGAAGG
DNA 2: CCTTCATTCTACGCTGTCAATCGCCATCATCAGCAAAGAGTGACAGTTCAGCTTTCTCGC
B31: NRC3_random_hg19_168_o1 (dsDNA)
DNA 1: GCACAGAAATGAAATGGGCTATAGAGCTCATCTTCTGCGATTGACAGCGTAGAATGAAGG
DNA 2: CCTTCATTCTACGCTGTCAATCGCAGAAGATGAGCTCTATAGCCCATTTCATTTCTGTGC
B32: NRC3_random_hg19_231_o1 (dsDNA)
DNA 1: GCATTACAAAGGTGCTGGAAAGGCTTGGGAGGAGCAGCGATTGACAGCGTAGAATGAAGG
DNA 2: CCTTCATTCTACGCTGTCAATCGCTGCTCCTCCCAAGCCTTTCCAGCACCTTTGTAATGC
B33: NRC3_random_hg19_175_o1 (dsDNA)
DNA 1: GCGAGGAAGCTAAGCACTGCAAGGAAGAGGGTCAGAGCGATTGACAGCGTAGAATGAAGG
DNA 2: CCTTCATTCTACGCTGTCAATCGCTCTGACCCTCTTCCTTGCAGTGCTTAGCTTCCTCGC

Molecular target: RARg:RXRa (Homo sapiens, UniProt P13631;P19793 full;full)
Sequence (P13631 whole entry, chain 1 of 2): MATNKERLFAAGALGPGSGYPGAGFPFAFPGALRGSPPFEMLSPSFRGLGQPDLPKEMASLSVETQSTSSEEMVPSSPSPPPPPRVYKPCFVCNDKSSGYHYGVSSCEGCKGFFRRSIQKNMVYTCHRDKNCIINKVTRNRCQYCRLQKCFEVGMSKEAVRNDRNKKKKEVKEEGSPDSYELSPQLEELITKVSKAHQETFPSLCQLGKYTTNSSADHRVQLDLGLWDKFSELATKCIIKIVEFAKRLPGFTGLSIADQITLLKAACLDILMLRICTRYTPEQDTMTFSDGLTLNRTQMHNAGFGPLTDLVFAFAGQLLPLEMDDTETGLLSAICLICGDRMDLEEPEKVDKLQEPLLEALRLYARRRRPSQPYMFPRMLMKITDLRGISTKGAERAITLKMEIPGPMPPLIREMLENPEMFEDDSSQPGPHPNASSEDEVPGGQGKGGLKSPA
Sequence (P19793 whole entry, chain 2 of 2): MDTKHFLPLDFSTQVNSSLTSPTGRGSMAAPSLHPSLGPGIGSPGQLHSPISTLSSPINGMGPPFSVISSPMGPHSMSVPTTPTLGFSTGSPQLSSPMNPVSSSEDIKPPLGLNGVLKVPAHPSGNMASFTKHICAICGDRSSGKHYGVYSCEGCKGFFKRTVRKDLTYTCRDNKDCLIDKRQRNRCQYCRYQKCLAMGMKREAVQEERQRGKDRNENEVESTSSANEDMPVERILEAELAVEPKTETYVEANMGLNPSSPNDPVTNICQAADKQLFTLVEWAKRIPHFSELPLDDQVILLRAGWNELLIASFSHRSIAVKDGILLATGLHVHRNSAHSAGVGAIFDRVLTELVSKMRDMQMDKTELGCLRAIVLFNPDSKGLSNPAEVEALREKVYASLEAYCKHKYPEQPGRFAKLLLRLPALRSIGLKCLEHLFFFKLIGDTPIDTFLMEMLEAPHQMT
Test: no ligand; PBM; 270 nM : 90 nM RXRa; PBS pH 7.4, 2% milk, 0.02% Triton X-100, 1 mM DTT, BSA, 0.4 mg/ml salmon testes DNA
Settings: tags: His kept;His cleaved; copies: 1;1; label: surface-attached array probe
Method in brief: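 For binding z-scores, the reference was random background probes on custom Agilent 4×180K protein-binding microarrays. These arrays were incubated 1 h with ligand-free nuclear receptor dimers in PBS pH 7.4, 2% milk, 0.02% Triton X-100, 1 mM DTT, 0.2 mg/mL BSA and 0.4 mg/ml salmon testes DNA. Fluorescence was scanned after antibody detection of each partner (one per run) and regression-normalized.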

Row | Binder | binding signal
1 | B1 | 0.5 PBM z-score against 500 random probes
2 | B2 | 0.5 PBM z-score against 500 random probes
3 | B3 | 0.46 PBM z-score against 500 random probes
4 | B4 | 0.45 PBM z-score against 500 random probes
5 | B5 | 0.43 PBM z-score against 500 random probes
6 | B6 | 0.42 PBM z-score against 500 random probes
7 | B7 | 0.4 PBM z-score against 500 random probes
8 | B8 | 0.39 PBM z-score against 500 random probes
9 | B9 | 0.38 PBM z-score against 500 random probes
10 | B10 | 0.37 PBM z-score against 500 random probes
11 | B11 | 0.36 PBM z-score against 500 random probes
12 | B12 | 0.35 PBM z-score against 500 random probes
13 | B13 | 0.33 PBM z-score against 500 random probes
14 | B14 | 0.32 PBM z-score against 500 random probes
15 | B15 | 0.3 PBM z-score against 500 random probes
16 | B16 | 0.29 PBM z-score against 500 random probes
17 | B17 | 0.29 PBM z-score against 500 random probes

Row | Binder | binding signal
18 | B18 | 0.27 PBM z-score against 500 random probes
19 | B19 | 0.25 PBM z-score against 500 random probes
20 | B20 | 0.23 PBM z-score against 500 random probes
21 | B21 | 0.22 PBM z-score against 500 random probes
22 | B22 | -0.31 PBM z-score against 500 random probes
23 | B23 | 0.49 PBM z-score against 500 random probes
24 | B24 | 0.44 PBM z-score against 500 random probes
25 | B25 | 0.38 PBM z-score against 500 random probes
26 | B26 | 0.33 PBM z-score against 500 random probes
27 | B27 | 0.18 PBM z-score against 500 random probes
28 | B28 | 0.09 PBM z-score against 500 random probes
29 | B29 | 0.07 PBM z-score against 500 random probes
30 | B30 | 0.04 PBM z-score against 500 random probes
31 | B31 | -0.02 PBM z-score against 500 random probes
32 | B32 | -0.04 PBM z-score against 500 random probes
33 | B33 | -0.07 PBM z-score against 500 random probes
